Laboratory results reported in patent US20110028686A1, “Protein binding miniature proteins” (Yale University, priority 2000, published 2011).
Square brackets hold non-standard residues; d marks the D form. Primed or numbered codes have the meaning given here. Ends that are not written are not given here. acetamidofluorescein″ = acetamidofluorescein (5-iodoacetamidofluorescein attached to the C-terminal Cys); pS = N[C@@H](COP(=O)(O)O)C(=O)O; Sar = CNCC(=O)O

Key:
[1] = substrate: CBP KIX, wild type (Example 20) (UniProt P45481); test: FP, fluorescein-labelled PPKID4^P variant titrated with CBP KIX
FP with CBP KIX = substrate: CBP KIX, wild type (Example 20) (UniProt P45481); test: FP with CBP KIX
GST-KIXY650A = GST-KIXY650A (UniProt P45481); test: FP, 25 nM fluorescein-labelled peptide titrated with GST-KIXY650A, 25 C
Sequence of GST-KIXY650A (P45481 586-665 Y650A): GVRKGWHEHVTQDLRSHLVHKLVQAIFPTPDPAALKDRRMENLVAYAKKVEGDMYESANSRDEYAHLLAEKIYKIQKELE

Sequence of CBP KIX, wild type (Example 20) (P45481 586-665 limits assumed): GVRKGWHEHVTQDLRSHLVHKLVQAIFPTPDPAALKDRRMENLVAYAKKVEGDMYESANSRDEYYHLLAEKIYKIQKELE

Binder | Kd [1] | ΔΔG relative to wild type PPKID4^P (FP with CBP KIX) | fold less stable than the wild type GST-KIX complex (GST-KIXY650A)
GPSQ[Sar]TYPGDDAPVRRL[pS]FFYILLDLYLDAPGVC(acetamidofluorescein″)-NH2 (designed binder) [PPKID4^P P5Z] | 800 nM | 0.16 kcal/mol | –
G[Sar]SQPTYPGDDAPVRRL[pS]FFYILLDLYLDAPGVC(acetamidofluorescein″)-NH2 (designed binder) [PPKID4^P P2Z] | 830 nM | 0.18 kcal/mol | –

The remaining lines, values ahead:

Kd [1] | ΔΔG relative to wild type PPKID4^P (FP with CBP KIX) | fold less stable than the wild type GST-KIX complex (GST-KIXY650A) | Binder
780 nM | 0.15 kcal/mol | – | GPSQPTY[Sar]GDDAPVRRL[pS]FFYILLDLYLDAPGVC(acetamidofluorescein″)-NH2 (designed binder) [PPKID4^P P8Z]
– | – | 15 fold | TDSQKRREILSRRP[pS]YRKILNDLSSDAPGVC-NH2 (also: C-terminal Cys acetamidofluorescein-labelled in direct assays, unlabelled as competitor) [KID-AB^P]
